T1: phosphorylated peptide (PRHLSNVS(pS)TGSIDMVD) of Example 10 (human)
T1 sequence (peptide, phosphoserine (pS) at peptide position 9): PRHLSNVSSTGSIDMVD


Target: T1, phosphorylated peptide (PRHLSNVS(pS)TGSIDMVD) of Example 10 (human)
Experiment: ELISA, pS413 peptide coated at 1 ug/ml, antibody titrated, goat anti-human-HRP, ABTS, OD405 (Example 10)

EC50 (read off the curve) [µg/mL] | Binder
0.02 | Humanized × [MAPT_H] mAb (Ta1505-VL46_N33S/VH11) IgG4 S228P/Kappa (CX) (antibody, V domains shown) VH: EVQLVESGGGLVQPGGSLRLSCAASGFTFSSFALNWVRQAPGKGLEWVGHIRSKTNNYATFYAASVKDRFTVSRDDSQNTAYLQMNSLKTEDTATYYCVRRGPRDSWFGYWGQGTLVTVSS VL: DIVMTQSPLSLPVTLGEPASISCRSSQSIVHSSGNTYLEWYLQKPGQSPQLLIYTVSNRFSGVPDRFSGSGSGTDFTLKISRVEAEDLGVYYCFQGSHLPLTFGGGTKVEIKR
0.01 | Humanized × [MAPT_H] mAb (Ta1505-VL46_N33T/VH11) IgG4 S228P/Kappa (CX) (antibody, V domains shown) VH: EVQLVESGGGLVQPGGSLRLSCAASGFTFSSFALNWVRQAPGKGLEWVGHIRSKTNNYATFYAASVKDRFTVSRDDSQNTAYLQMNSLKTEDTATYYCVRRGPRDSWFGYWGQGTLVTVSS VL: DIVMTQSPLSLPVTLGEPASISCRSSQSIVHSTGNTYLEWYLQKPGQSPQLLIYTVSNRFSGVPDRFSGSGSGTDFTLKISRVEAEDLGVYYCFQGSHLPLTFGGGTKVEIKR

Second part, the binder before the results:

Binder | EC50 (read off the curve) [µg/mL]
Humanized × [MAPT_H] mAb (Ta1505-VL46_G34T/VH11) IgG4 S228P/Kappa (CX) (antibody, V domains shown) VH: EVQLVESGGGLVQPGGSLRLSCAASGFTFSSFALNWVRQAPGKGLEWVGHIRSKTNNYATFYAASVKDRFTVSRDDSQNTAYLQMNSLKTEDTATYYCVRRGPRDSWFGYWGQGTLVTVSS VL: DIVMTQSPLSLPVTLGEPASISCRSSQSIVHSNTNTYLEWYLQKPGQSPQLLIYTVSNRFSGVPDRFSGSGSGTDFTLKISRVEAEDLGVYYCFQGSHLPLTFGGGTKVEIKR | 0.01
Humanized × [MAPT_H] mAb (Ta1505-VL46 S28N/VH11) IgG4 S228P/Kappa (CX) (antibody, V domains shown) VH: EVQLVESGGGLVQPGGSLRLSCAASGFTFSSFALNWVRQAPGKGLEWVGHIRSKTNNYATFYAASVKDRFTVSRDDSQNTAYLQMNSLKTEDTATYYCVRRGPRDSWFGYWGQGTLVTVSS VL: DIVMTQSPLSLPVTLGEPASISCRSSQNIVHSNGNTYLEWYLQKPGQSPQLLIYTVSNRFSGVPDRFSGSGSGTDFTLKISRVEAEDLGVYYCFQGSHLPLTFGGGTKVEIKR | 0.006
Humanized × [MAPT_H] mAb (Ta1505-VL46_N33Q/VH11) IgG4 S228P/Kappa (CX) (antibody, V domains shown) VH: EVQLVESGGGLVQPGGSLRLSCAASGFTFSSFALNWVRQAPGKGLEWVGHIRSKTNNYATFYAASVKDRFTVSRDDSQNTAYLQMNSLKTEDTATYYCVRRGPRDSWFGYWGQGTLVTVSS VL: DIVMTQSPLSLPVTLGEPASISCRSSQSIVHSQGNTYLEWYLQKPGQSPQLLIYTVSNRFSGVPDRFSGSGSGTDFTLKISRVEAEDLGVYYCFQGSHLPLTFGGGTKVEIKR | 0.02
Humanized × [MAPT_H] mAb (Ta1505-VL46_N33Q_G34A/VH11) IgG4 S228P/Kappa (CX) (antibody, V domains shown) VH: EVQLVESGGGLVQPGGSLRLSCAASGFTFSSFALNWVRQAPGKGLEWVGHIRSKTNNYATFYAASVKDRFTVSRDDSQNTAYLQMNSLKTEDTATYYCVRRGPRDSWFGYWGQGTLVTVSS VL: DIVMTQSPLSLPVTLGEPASISCRSSQSIVHSQANTYLEWYLQKPGQSPQLLIYTVSNRFSGVPDRFSGSGSGTDFTLKISRVEAEDLGVYYCFQGSHLPLTFGGGTKVEIKR | 0.02

Reference: patent US20180346564A1
